Three molecules from US20200362033A1 can be followed below.

This experiment addresses human CD147 endogenously expressed on human cancer cell lines (human), P35613. Kind of experiment: cell-based or functional assay.

Some results are limits rather than exact numbers.

B1: #101H1L2hIgG2 (antibody)
heavy: EVQLVESGGGLVQPGRSLRLSCAASGFTFSDYYMAWVRQAPGKGLEWVATISYDGSNTYYRDSVKGRFTISRDNSKSTLYLQMNSLRAGDTAVYYCARFYNNYYFDYWGQGTLVTVSSASTKGPSVFPLAPCSRSTSESTAALGCLVKDYFPEPVTVSWNSGALTSGVHTFPAVLQSSGLYSLSSVVTVPSSNFGTQTYTCNVDHKPSNTKVDKTVERKCCVECPPCPAPPVAGPSVFLFPPKPKDTLMISRTPEVTCVVVDVSHEDPEVQFNWYVDGVEVHNAKTKPREEQFNSTFRVVSVLTVVHQDWLNGKEYKCKVSNKGLPAPIEKTISKTKGQPREPQVYTLPPSREEMTKNQVSLTCLVKGFYPSDIAVEWESNGQPENNYKTTPPMLDSDGSFFLYSKLTVDKSRWQQGNVFSCSVMHEALHNHYTQKSLSLSPGK
light: DIQMTQSPSSLSASVGDRVTINCKASQNLYKNLAWYQQKPGKAPKLLIDNANSLQTGIPSRFSGSGSGTDFTLTISSLQPEDFATYFCQQYYSGSYTFGQGTKVEIKRTVAAPSVFIFPPSDEQLKSGTASVVCLLNNFYPREAKVQWKVDNALQSGNSQESVTEQDSKDSTYSLSSTLTLSKADYEKHKVYACEVTHQGLSSPVTKSFNRGEC
With B1, the ratio of the phosphorylated p38MAPK signal to the detected p38MAPK signal, HepG2 cells, 10 ug/ml, 15 minutes (fold of the human IgG treated group) was > 2.

B2: #84H1L2hIgG2 (antibody)
heavy: EVQLVESGGGLVQPGGSLRLSCAASGFTFSNYYMAWVRQAPGKGLEWVSTITTSGSRPYYADSVKGRFTISRDNSKNTLYLQMNSLRAEDTAVYYCARHIYYYDGYPFAYWGQGTLVTVSSASTKGPSVFPLAPCSRSTSESTAALGCLVKDYFPEPVTVSWNSGALTSGVHTFPAVLQSSGLYSLSSVVTVPSSNFGTQTYTCNVDHKPSNTKVDKTVERKCCVECPPCPAPPVAGPSVFLFPPKPKDTLMISRTPEVTCVVVDVSHEDPEVQFNWYVDGVEVHNAKTKPREEQFNSTFRVVSVLTVVHQDWLNGKEYKCKVSNKGLPAPIEKTISKTKGQPREPQVYTLPPSREEMTKNQVSLTCLVKGFYPSDIAVEWESNGQPENNYKTTPPMLDSDGSFFLYSKLTVDKSRWQQGNVFSCSVMHEALHNHYTQKSLSLSPGK
light: DVQMTQSPSSLSASVGDRVTITCKASKSISNNLAWYQQKPGKANKLLIHSGSTLQSGTPSRFSGSGSGTDFTLTISSLQPEDFATYYCQQYNEYPLTFGQGTKVEIKRTVAAPSVFIFPPSDEQLKSGTASVVCLLNNFYPREAKVQWKVDNALQSGNSQESVTEQDSKDSTYSLSSTLTLSKADYEKHKVYACEVTHQGLSSPVTKSFNRGEC
In the case of B2, the ratio of the phosphorylated p38MAPK signal to the detected p38MAPK signal, HepG2 cells, 10 ug/ml, 15 minutes (fold of the human IgG treated group) was > 2.

B3: #131H2L2hIgG2 (antibody)
heavy: QVQLVESGGGVVQPGRSLRLSCAASGFTFNNYWMTWVRQAPGKGLEWVASITKAGGSTYYADSVKGRFTISRDNSKSTLYLQMNSLRAEGTAVYYCTRELGEFYVMDAWGQGTTVTVSSASTKGPSVFPLAPCSRSTSESTAALGCLVKDYFPEPVTVSWNSGALTSGVHTFPAVLQSSGLYSLSSVVTVPSSNFGTQTYTCNVDHKPSNTKVDKTVERKCCVECPPCPAPPVAGPSVFLFPPKPKDTLMISRTPEVTCVVVDVSHEDPEVQFNWYVDGVEVHNAKTKPREEQFNSTFRVVSVLTVVHQDWLNGKEYKCKVSNKGLPAPIEKTISKTKGQPREPQVYTLPPSREEMTKNQVSLTCLVKGFYPSDIAVEWESNGQPENNYKTTPPMLDSDGSFFLYSKLTVDKSRWQQGNVFSCSVMHEALHNHYTQKSLSLSPGK
light: DVQMTQSPSSLSASVGDRVTITCKASKSINTYLAWYQEKPGKTNKLLIYSGSTLQSGTPSRFSGSGSGTDFTLTISSLQPEDFATYYCQQHNEYPFTFGQGTKLEIKRTVAAPSVFIFPPSDEQLKSGTASVVCLLNNFYPREAKVQWKVDNALQSGNSQESVTEQDSKDSTYSLSSTLTLSKADYEKHKVYACEVTHQGLSSPVTKSFNRGEC
As for B3, the ratio of the phosphorylated p38MAPK signal to the detected p38MAPK signal, HepG2 cells, 10 ug/ml, 15 minutes (fold of the human IgG treated group) was > 2.
